The values below come from patent US20140178329A1 (INSTITUCIO CATALANA DE RECERCA I ESTUDIS AVANCATS ICREA, published 2014).

First the molecules themselves.
B1: FLAG-tagged wild-type soluble APRIL (amino acid 105 to 250) (ligand)
chain: AVLTQKQKKQHSVLHLVPINATSKDDSDVTEVMWQPALRRGRGLQAQGYGVRIQDAGVYLLYSQVLFQDVTFTMGQVVSREGQGRQETLFRCIRSMPSHPDRAYNSCYSAGVFHLHQGDILSVIIPRARAKLNLSPHGTFLGFVKL
notes: Used as conditioned medium of transfected 293T cells, not purified; also called WT; WT APRIL; not shown: FLAG tag
B2: T175F (ligand)
soluble APRIL monomer: B1 chain with T71F
notes: FLAG-tagged soluble variant used as 293T conditioned medium; predicted TACI-selective; member of group m13; also called APRIL-T175F
B3: APRIL-R206M (FLAG-tagged soluble variant) (ligand)
chain: B1 chain with R102M
notes: Used as conditioned medium; not shown: FLAG tag
B4: D132A (ligand)
soluble APRIL monomer: B1 chain with D28A
notes: FLAG-tagged soluble variant used as 293T conditioned medium; predicted TACI-selective; member of group m13; also called APRIL-D132A
B5: R233A (ligand)
soluble APRIL monomer: B1 chain with R129A
notes: FLAG-tagged soluble variant used as 293T conditioned medium; predicted TACI-selective; member of group m13; also called APRIL-R233A
B6: T175Y (ligand)
soluble APRIL monomer: B1 chain with T71Y
notes: FLAG-tagged soluble variant used as 293T conditioned medium; predicted TACI-selective; member of group m13; also called APRIL-T175Y
B7: APRIL T175D-D205Y double mutant (ligand)
chain: B1 chain with T71D, D101Y
notes: also called T175D-D205Y/K; not shown: FLAG tag
B8: human BCMA-Fc (Fc fusion, UniProt Q02223 2-54, looked up)
chain: LQMAGQCSQNEYFDSLLHACIPCQLRCSSNTPPLTCQRYCNASVTNSVKGTNA
modifications: cysteine pairing not given here; also: fused to human IgG1 Fc, construct limits, linker and order not given here
notes: Generated in-house; not shown: Fc portion of human IgG1
B9: APRIL-D132F (FLAG-tagged soluble variant) (ligand)
chain: B1 chain with D28F
notes: as for B3
B10: APRIL-D132Y (FLAG-tagged soluble variant) (ligand)
chain: B1 chain with D28Y
notes: as for B3
B11: APRIL-H241T (FLAG-tagged soluble variant) (ligand)
chain: B1 chain with H137T
notes: not shown: FLAG tag
B12: mouse BCMA-Fc (R&D Systems) (Fc fusion, UniProt O88472 2-49, looked up)
chain: AQQCFHSEYFDSLLHACKPCHLRCSNPPATCQPYCDPSVTSSVKGTYT
notes: Bought; also called mBCMA-Fc; murine BCMA-Fc; not shown: Fc portion of human IgG1
B13: APRIL-D205Y (FLAG-tagged soluble variant) (ligand)
chain: B1 chain with D101Y
notes: as for B3
B14: APRIL T175D-R206E double mutant (ligand)
chain: B1 chain with T71D, R102E
notes: not shown: FLAG tag
B15: APRIL T175D-D205K double mutant (ligand)
chain: B1 chain with T71D, D101K
notes: as for B7
B16: mouse TACI-Fc (R&D Systems) (Fc fusion, UniProt Q9ET35 5-129, looked up)
chain: FCPKDQYWDSSRKSCVSCALTCSQRSQRTCTDFCKFINCRKEQGRYYDHLLGACVSCDSTCTQHPQQCAHFCEKRPRSQANLQPELGRPQAGEVEVRSDNSGRHQGSEHGPGLRLSSDQLTLYCT
notes: Bought; also called mTACI-Fc; murine TACI-Fc; not shown: Fc portion of human IgG1
B17: T175L (ligand)
soluble APRIL monomer: B1 chain with T71L
notes: FLAG-tagged soluble variant used as 293T conditioned medium; predicted TACI-selective; member of group m13; also called APRIL-T175L
B18: APRIL-T175D (FLAG-tagged soluble variant) (ligand)
chain: B1 chain with T71D
notes: as for B3
B19: R233E (ligand)
soluble APRIL monomer: B1 chain with R129E
notes: FLAG-tagged soluble variant used as 293T conditioned medium; predicted TACI-selective; member of group m13; also called APRIL-R233E

Assay [1] deals with T1, human TACI-Fc (human, UniProt O14836 2-160, limits assumed).
T1 construct: Generated in-house; not shown: Fc portion of human IgG1
T1 sequence (looked up): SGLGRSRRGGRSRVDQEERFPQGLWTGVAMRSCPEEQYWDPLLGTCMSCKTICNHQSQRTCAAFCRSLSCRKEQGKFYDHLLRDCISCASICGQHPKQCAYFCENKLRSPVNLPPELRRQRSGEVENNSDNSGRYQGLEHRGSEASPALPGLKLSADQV
As to the kind of experiment: SPR (Biacore 2000), FLAG-APRIL captured by anti-FLAG M2, receptor-Fc injected, single cycle kinetics, 1:1 fit. How it is done: (§1) FIG. 10: Surface Plasmon Resonance sensorgrams to illustrate binding of TACI-Fc and BCMA-Fc to WT and R206E-APRIL. Sensorgrams of human (Panel A) and mouse (Panel B) receptors binding to WT and R206E-APRIL. Stepwise increments in the curves represent sequential injections of receptor at the following concentrations: […]. In some cases, no value for affinity was calculated due to a low binding response or high drift.
(§2) In order to further assess the binding properties of the mutants and to measure apparent affinities and kinetics of receptor binding, a Surface Plasmon Resonance based receptor binding assay was performed on a Biacore 2000 (GE Healthcare, Diegem, Belgium). Anti-FLAG-M2 monoclonal antibody (Sigma-Aldrich) was diluted at a concentration of 5 μg/ml in 10 mM sodium acetate pH 4.5 and covalently immobilized (approx 1500 RU) to a CM-5 sensor chip (GE Healthcare), using standard amine coupling chemistry according to manufacturer's guidelines (Amine coupling kit, GE Healthcare). The different FLAG-APRIL variants in the form of tissue culture supernatants were captured onto the chip via the FLAG-tag at 10 μl/minute for five minutes, giving capture levels ranging from 159 to 207 RU. As a reference lane, one of the flow cells was left free of soluble FLAG-APRIL, to control for any background binding. BCMA- or TACI-Fc were then injected for three minutes over all four flow cells at 30 μl/minutes at increasing concentrations (ranging from 1-50 nM) using the single cycle kinetics method at 25° C. Dissociation was monitored for five minutes. The resulting curves were fitted using a 1:1 Langmuir model using BIAevaluation software 4.1. For each combination of FLAG-APRIL and BCMA- or TACI-Fc, the apparent kₐ, kd and KD were calculated from a global fit of binding curves from at least three separate experiments. Non-specific binding in the reference cell was subtracted before curve fitting. Regeneration of the anti-FLAG antibody surface was carried out with a 10-minute injection at 30 μl/minute of a mixture of ⅓ volume of TBS pH 11.5, ⅓ volume of Ionic solution and ⅓ volume of water. The Ionic solution was comprised of KSCN (0.46 M), MgCl₂ (1.83 M), urea (0.92 M) and guanidine-HCl (1.83 M).
Background: SPR reads the build-up and loss of mass on a sensor chip optically.

For assay [2], the target named is B16. Put plainly: receptor-binding ELISA, mouse TACI-Fc coated [TACI selective, Ms TACI-Fc coated]. Here is the method: (§3) The relative binding of the variants to either BCMA or TACI, was tested using a binding ELISA. The following proteins were used: human BCMA-Fc, human TACI-Fc (both generated in-house), mouse BCMA-Fc (R&D Systems, Abingdon, UK), mouse TACI-Fc (R&D Systems); in all cases the Fc portion is from human IgG1. BCMA-Fc and TACI-Fc were coated on 96-well Nunc Maxisorp plates (Thermo Fischer Scientific, Roskilde, Denmark) at concentrations of 1 μg/ml and 2 μg/ml, respectively, in 0.5 M sodium bicarbonate buffer pH 9.5, overnight at 4° C. Plates were then blocked with 5% BSA for one hour at 37° C. Soluble APRIL variants in the form of tissue culture conditioned medium were then added to the plate for two hours at 37° C. Following APRIL binding, plates were washed three times with PBS, 0.05% TWEEN®20. Bound APRIL was detected with 1 μg/ml of HRP-coupled anti-FLAG M2 and visualized with 2,2′-azino-bis(3-ethylbenzothiazoline-6-sulphonic acid (ABTS) (Sigma-Aldrich). The absorbance was read at 405 nm using a UV-VIS microplate reader (BioRad, Veenendaal, The Netherlands).
(ELISA stands for enzyme-linked immunosorbent assay.)

Assay [3] deals with B12. As to the kind of experiment: receptor-binding ELISA, mouse BCMA-Fc coated, dilution series of conditioned medium, anti-FLAG-HRP, OD 405 nm [TACI selective, Ms BCMA-Fc coated]. Here is the method:
as §3

Assay [4] has as its target B12. Put plainly: receptor-binding ELISA, mouse BCMA-Fc coated, dilution series of conditioned medium, anti-FLAG-HRP, OD 405 nm [BCMA selective, Ms BCMA-Fc coated]. How it is done:
as §3

The target in assay [5] is B16. Put plainly: receptor-binding ELISA, mouse TACI-Fc coated, dilution series of conditioned medium, anti-FLAG-HRP, OD 405 nm [TACI selective, Ms TACI-Fc coated]. Here is the method: as §3
The assay “human BCMA-Fc” addresses B8. As to the kind of experiment: binding test not named (data not shown).
In assay [6] the target is T1, human TACI-Fc. As to the kind of experiment: binding test not named (data not shown).
For assay [7], the target named is B1. Put plainly: SPR (Biacore 2000), FLAG-APRIL captured by anti-FLAG M2, receptor-Fc injected, single cycle kinetics, 1:1 fit. Here is the method:
as §1, §2

Substitutions are numbered along the chain they refer to. Names may count otherwise. No end group written: not given here.

On to B1, for which, in the assay with human TACI-Fc [1], the dissociation constant (Kd) (in general, the free concentration of one partner at which half of the binding sites on the other are occupied at equilibrium, for simple one-to-one binding) is 3.9 nM; the koff (commonly a measure of how fast the partners let go of each other) was 0.00041 s⁻¹; the on-rate constant (kon) (usually the rate constant with which the complex forms) amounted to 110000 M⁻¹ s⁻¹.

Regarding B2, the binding result in assay [2] is “no binding”; in assay [3] it was “binds”.

For the molecule B3, the binding result in assay [4] is reported as “binds”. Besides, in the assay with human TACI-Fc [1], the Kd amounted to 0.32 nM, the koff worked out at 0.00016 s⁻¹ and the association rate constant (kon) is 490000 M⁻¹ s⁻¹.

Consider B4, for which the binding result in assay [3] and in assay [5] was “binds” each time.

For B5, the binding result in assay [3] and in assay [5] was “binds” in each case.

As for B6, the results for the binding result in assay [2] and in assay [3] were “no binding” and “binds”, respectively.

With B7, the binding result in the assay with human BCMA-Fc and with human TACI-Fc [6] was “no binding” in each case.

Take B8: in assay [7], the Kd worked out at 0.38 nM, the off-rate constant (koff) stood at 0.0002 s⁻¹ and the on-rate (kon) turned out to be 530000 M⁻¹ s⁻¹.

On to B9, for which the binding result in assay [3] is “binds”.

With B10, the binding result in assay [3] was “binds”.

Regarding B11, the binding result in assay [3] and in assay [5] was “binds” throughout.

In the case of B12, in assay [7], the Kd came to 0.14 nM, the koff was determined as 0.00013 s⁻¹ and the kon turned out to be 890000 M⁻¹ s⁻¹.

In the case of B13, the binding result in assay [4] is on record as “binds”.

As for B14, the binding result with human BCMA-Fc and with human TACI-Fc [6] was “no binding” each time.

In the case of B15, the binding result with human BCMA-Fc and with human TACI-Fc [6] was “no binding” throughout.

Take B16: in assay [7], the Kd amounted to 4.4 nM, the off-rate (koff) was determined as 0.00075 s⁻¹ and the kon is 170000 M⁻¹ s⁻¹.

B17: the binding result in assay [2] is recorded as “no binding”; in assay [3] it was “binds”.

Regarding B18, the binding result in assay [4] is “binds”.

B19: the binding result in assay [3] and in assay [5] was “binds” in each case.
